Patent US20120149645A1, “COMPOSITIONS AND MODULATION OF MYOCYTE ENHANCER FACTOR 2 (MEF2)” (EMORY UNIVERSITY, priority 2010, published 2012)

Key:
ND6 mRNA = assay: Real-time PCR of mitochondria-encoded mRNA levels in SN4741 cells; type: cell-based, mouse; details: construct over-expressed in SN4741 cells
From the text: (§1) (A) Mitochondria-targeting MEF2D (Mt2D) and mitochondria-targeting dominant-negative MEF2D (Mt2Ddn), which lacks the transactivation domain (TAD). […] Control indicates the control vector group. (C) Effects of Mt2D or Mt2Ddn on ND6 expression in SN4741 cells. Over-expression of Mt2Ddn in SN4741 cells reduced ND6 but not PPAR-γ coactivator 1 (PGC1) expression by western blotting (n=4, **p<0.01). Control indicates the control vector group. (D) Effects of over-expression of Mt2D or Mt2Ddn on mRNA levels of mitochondria encoded genes. […] Control indicates the control vector group. (E) Effects of Mt2D or Mt2Ddn on mtDNA L-strand transcription initiation in vitro (n=3; **P<0.01). A human mtDNA fragment containing mitochondrial L-strand promoter (LSP) and ND6 gene was used in the in vitro transcription assay. […] (F) Effects of Mt2D or Mt2Ddn on mtDNA de novo transcription in vivo (n=3; **P<0.01). Control (−) is without primers. Control (+) indicates the control vector group.

[1] = test system: human mtDNA fragment containing mitochondrial L-strand promoter (LSP) and ND6 gene; assay: In vitro mtDNA L-strand transcription assay; type: biochemical
From the text: as §1

ND6 = assay: In organello de novo transcription assay; type: cell-based, mouse; details: mitochondria isolated from SN4741 cells infected with lentivirus for 24 hour
From the text: as §1
SN4741 cells were infected with Mt2D or Mt2Ddn lentiviruses for 24 hour. De novo transcription was measured in isolated mitochondria as described previously (46, 47). The mitochondrial fraction was suspended in transcription buffer containing 25 mM sucrose, 75 mM sorbitol, 100 mM KCl, 10 mM K2HPO4, 50 mM EDTA, 5 mM MgCl2, 1 mM ADP, 10 mM glutamate, 2.5 mM malate, and 10 mM Tris-HCl (pH7.4), with 1 mg of BSA per ml. […]

MEF2D and ND6 proteins = assay: Western blotting of MEF2D, ND6 and PGC1 protein levels in SN4741 cells; type: cell-based, mouse; details: construct over-expressed in SN4741 cells
From the text: as §1
(§2) (A) Reduced binding of MEF2D to ND6 after neurotoxin treatment. SN4741 cells were treated with MPP+ (25 μM) or rotenone (Rot, 100 nM) for 12 hours. […] Control indicates untreated. […] Control indicates untreated. (C) Immunocytochemical analysis of mitochondrial MEF2D after MPP+ and rotenone treatment. SN4741 cells treated as described in (A) were stained (scale bar, 10 μm). […] Experiments were repeated four times. Control indicates untreated. […] SN4741 cells were treated with MPP+ after infection with the control, Mt2Ddn or Mt2DVP16 or MtND6 lentiviruses for 24 hours (upper graph: different doses of MPP+ for 24 hours; lower graph: 5 μM of MPP+ for different times). Cell viability was measured by WST-1 assay (n=4; *p<0.05; **P<0.01). Control indicates the control vector group.
(A) Diagrams of Mt2DVP16 and MtND6. Mt2DVP16 was constructed by fusion of transactivation domain (TAD) of VP16 with DNA-binding domain of MEF2D and a mitochondria-targeting sequence (Mito). […] (C) Over-expression of Mt2DVP16 attenuated MEF2D siRNA-induced reduction of ND6 expression (n=3, **P<0.01).

SN4741 cells [2] = assay: PI (propidium iodide) staining of cell death; type: cell-based, mouse; details: SN4741 cells infected with lentivirus 24 hours, then MPP+ 5 μM for 24 hours
Procedure: (A) SN4741 cells were infected with lentiviruses for 24 hours and followed by exposure to MPP+ (5 μM) for 24 hours. Cell death was analyzed by PI (propidium iodide) staining (n=4; scale bar, 30 μm). The control indicated the control vector. (B) Quantification of the number of PI positive cells in (A) (n=50 cells, **P<0.01). Experiments were repeated four times. Control indicates the group transfected with the control vector.

SN4741 cells [3] = assay: WST-1 cell viability assay; type: cell-based, mouse
Procedure: as §2
WST-1 assay was done using a kit (cat. no. 11644807001) from Roche and following procedures provided by the manufacturer. WST-1 (4-[3-(4-Iodophenyl)-2-(4-nitrophenyl)-2H-5-tetrazolio]-1,3-benzene disulfonate) is a water-soluble tetrazolium salt whose cleavage by cellular enzymes correlates with cell viability. Cells were seeded in 96-well plates and treated as indicated. Than 10 μl/well of premixed WST-1 Cell Proliferation Reagent was added, and the cells were incubated for an additional 4 hr under the same conditions. Absorbance at 450 nm was measured on a multi-well plate reader (Bio-Tek).

B1: Mt2Ddn: Mitochondria-targeting dominant-negative MEF2D: mouse MEF2D 1-131aa with mitochondria-targeting signal, lacks the transactivation domain (protein, UniProt Q63943 1-131, looked up, fragment)
chain: MGRKKIQIQRITDERNRQVTFTKRKFGLMKKAYELSVLCDCEIALIIFNHSNKLFQYASTDMDKVLLKYTEYNEPHESRTNADIIETLRKKGFNGCDSPEPDGEDSLEQSPLLEDKYRRASEELDGLFRRY
modifications: mitochondria-targeting signal added
- ND6 mRNA level (ND6 mRNA): clearly reduced
- mRNA levels of other mitochondria-encoded proteins (ND6 mRNA): little effect
- level of L-strand promoter (LSP) transcripts [1]: reduces
- de novo transcription of ND6 (ND6): reduced
- ND6 protein level / expression (MEF2D and ND6 proteins): marked reduction
- level of PGC1 (nuclear target of MEF2) (MEF2D and ND6 proteins): did not alter
- number of propidium iodide (PI) positive cells (SN4741 cells [2]): increases
- sensitivity of cells to low dose MPP+ toxicity (SN4741 cells [3]; SN4741 cells infected with lentivirus 24 hours, then different doses of MPP+ for 24 hours): clearly sensitized
- cellular viability over time (SN4741 cells [3]; SN4741 cells infected with lentivirus, 5 μM MPP+ for different times): impaired
